1 molecule from doi:10.1101/2022.06.04.494830, “The oncogenic fusion protein EWS-FLI1 promotes premature ageing of biomolecular condensates by catalyzing fibril formation” (bioRxiv, 2022) can be followed below.

The target of this assay is PU.1 DNA-binding domain (PU.1^DBD, PU.1 168-270) (human, UniProt P17947 168-270). The assay can be described thus: NMR titration; 1H,15N-HSQC of 50 uM 15N PU.1 168-270 in 50 mM sodium phosphate pH 6.5, 25 C, titrated with unlabeled EWS^LCD (2 mM stock in 20 mM CAPS pH 11) to 12.5, 25, 50, 100 and 150 uM (~3:1). The conditions noted are these: both partners purified.

B1: EWS low-complexity domain (EWS^LCD, EWS 1-264) (domain or fragment)
chain: MASTDYSTYSQAAAQQGYSAYTAQPTQGYAQTTQAYGQQSYGTYGQPTDVSYTQAQTTATYGQTAYATSYGQPPTGYTTPTAPQAYSQPVQGYGTGAYDTTTATVTTTQASYAAQSAYGTQPAYPAYGQQPAATAPTRPQDGNKPTETSQPQSSTGGYNQPSLGYGQSNYSYPQVPGSYPMQPVTAPPSYPPTSYSSTQPTSYDQSSYSQQNTYGQPSSYGQQSSYGQQSSYGQQPPTSYPPQTGSYSQAPSQYSQQSSSYGQQ
notes: In the fluorescence microscopy 1% of the EWS^LCD carried DyLight 650 or 488, attached through a dye-labelled KLPETGG peptide with sortase; also called EWS^LCD,650; EWS^LCD,488; source: E. coli BL21 Star (DE3) or BL21 (DE3) pLysS, purified (IMAC or cation exchange, TEV cleavage, SEC; 20 mM CAPS pH 11); not shown: His tag (6 or 8 x), N-terminal, cleaved
For the molecule B1, the binding result was “binds”.
